Holding throughout (assay): anti-GFP affinity gel immunoprecipitation and western blot densitometry
In one test the target is mCherry-A123. The following applies: HEK293T cells co-transfected, lysed at 2 dpt; parent: est. 0.97; read off a plot.
For the next test, the target named is mCherry-A44. The conditions noted are these: HEK293T cells co-transfected, lysed at 2 dpt; parent: est. 1.0; read off a plot.
Another test concerns the target mCherry-A171. The conditions noted are these: HEK293T cells co-transfected, lysed at 2 dpt; parent: est. 1.0; read off a plot.

Three substances from PMC12344899 can be followed below.

With “Etf-2 (full-length)–GFP (from UniProt Q2GHK1) R188A”, the values for the response (relative density (intrabody / Etf-2-GFP)) with mCherry-A123, in the test with mCherry-A44 and in the test with mCherry-A171 were 0.94, 1.1 and 0.85, respectively.
Consider “Etf-2 (full-length)–GFP (from UniProt Q2GHK1) R188A; Q245A”, for which the response (relative density (intrabody / Etf-2-GFP)) with mCherry-A123 amounted to 0.1; with mCherry-A44, 0.24; in the test with mCherry-A171, 0.88.
The matching figures for “Etf-2 (full-length)–GFP (from UniProt Q2GHK1) Q245A”: 0.84, 0.25 and 0.83.
